Results reported in the supplement of paper PMC10724198.
± gives the standard deviation of the averaged measurements.

The sequences below were run on Saccharomyces cerevisiae (assay: protein stability index of tFT-peptide fusion (C-terminal peptide) (PSI (0-1 scale)); higher = more stable (slower turnover)). Settings: genetic background: wild type; temperature: 30 C.
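Also: PSI is a weighted mean of sequencing reads over stability bins, variants kept only with over 10 reads, mCherry proximal and sfGFP distal, peptide attached via GGGS linker.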

Row | Sequence | protein stability index
1 | RPPPPPPPPPSP | 0.723 ± 0.089
2 | RPPSPILPSSSP | 0.714 ± 0.077
3 | RPPVPSLLPEPT | 0.6313 ± 0.0043
4 | RPRPPLASPSPP | 0.7005 ± 0.0013
5 | RPRYITQGLPLL | 0.738 ± 0.026
6 | RPSGFVGSDVRV | 0.629 ± 0.071
7 | RPSNPPTKSQPS | 0.665 ± 0.019
8 | RPSPPALPRFLL | 0.703 ± 0.0073
9 | RPSTHPPATPPR | 0.695 ± 0.07
10 | RPSTSRKVKIDV | 0.663 ± 0.066
11 | RPTRSLYLLPLI | 0.699 ± 0.019
12 | RQESYYLYHTAR | 0.717 ± 0.032
13 | RQLPPRAPAARG | 0.661 ± 0.028
14 | RQNPRLPPPFQP | 0.731 ± 0.052
15 | RQTNEHNNQNER | 0.741 ± 0.082
16 | RRCCLDPGGLLS | 0.607 ± 0.0078
17 | RRCGETTEQTVR | 0.71 ± 0.059
18 | RRCRPPTRRTKE | 0.587 ± 0.053
19 | RRCSCGFLCIDS | 0.672 ± 0.14
20 | RRDELINVVKRT | 0.717 ± 0.072
21 | RRDIPLSPVAFS | 0.702 ± 0.031
22 | RREKGEARGRGG | 0.618 ± 0.013
23 | RREKRPMKKGGR | 0.6126 ± 0.002
24 | RRERQNEKMTYH | 0.656 ± 0.078
25 | RRESQRRYRRML | 0.714 ± 0.059

Row | Sequence | protein stability index
26 | RRFLRRISAFAS | 0.558 ± 0.06
27 | RRFQYLTENYQK | 0.6208 ± 0.0047
28 | RRGAGCAAVGLG | 0.618 ± 0.024
29 | RRGRGGGRRVDA | 0.731 ± 0.021
30 | RRKGRLTAGWGR | 0.713 ± 0.025
31 | RRLFVMDKRKRK | 0.716 ± 0.033
32 | RRLSVPFSPSAL | 0.733 ± 0.032
33 | RRMHLNMKEREL | 0.896 ± 0.054
34 | RRMSQQCLPRQR | 0.739 ± 0.047
35 | RRNGVVGRLGWV | 0.7 ± 0.051
36 | RRPCTSSHAKAP | 0.692 ± 0.021
37 | RRPQPPHKTAMP | 0.701 ± 0.078
38 | RRRQAEEDERNG | 0.658 ± 0.07
39 | RRRTDDSTPGRA | 0.686 ± 0.025
40 | RRSSLGIYWIYS | 0.61 ± 0.037
41 | RRTTGLGWSGRP | 0.644 ± 0.025
42 | RRVNDLGPPMRN | 0.779 ± 0.092
43 | RRVRRRRTGGAW | 0.669 ± 0.005
44 | RRVVIVSGWGWG | 0.591 ± 0.064
45 | RRWSPPGLGCIE | 0.735 ± 0.019
46 | RSETGYGTSWGA | 0.627 ± 0.026
47 | RSFRCWVQGYCG | 0.654 ± 0.044
48 | RSGLARPSPLTR | 0.67445 ± 0.00024
49 | RSGVSCPRVDDR | 0.643 ± 0.05
50 | RSGWRLLHLTTL | 0.613 ± 0.013

Row | Sequence | protein stability index
51 | RSHPTPQAHPSA | 0.728 ± 0.051
52 | RSKPIQAIPNPV | 0.69 ± 0.03
53 | RSLRLPPRTPLP | 0.652 ± 0.04
54 | RSLVAATLSSLG | 0.735 ± 0.045
55 | RSPNSSPPPSIS | 0.648 ± 0.014
56 | RSPPHSNLAHCI | 0.684 ± 0.037
57 | RSPPPVPELTRL | 0.7042 ± 0.0051
58 | RSPYSSLHNPLC | 0.706 ± 0.016
59 | RSRSIPTTLCLP | 0.655 ± 0.026
60 | RSSLAVSTKVER | 0.639 ± 0.02
61 | RSSPPPRHDPSP | 0.696 ± 0.088
62 | RSSRGGFAFVYR | 0.676 ± 0.03
63 | RSSVTIIGDINK | 0.619 ± 0.016
64 | RSTGFHRVSCGI | 0.72 ± 0.06
65 | RSTTRSTLSLHV | 0.701 ± 0.021
66 | RSVIEHKMRKKR | 0.682 ± 0.026
67 | RTAYLLRCLTTD | 0.681 ± 0.026
68 | RTGKVKNINISI | 0.71064 ± 0.00038
69 | RTHRKNRRYKKN | 0.639 ± 0.0072
70 | RTKLFGIVGRQL | 0.659 ± 0.036
71 | RTLWGYCPRSPL | 0.718 ± 0.021
72 | RTRKARTHGRAQ | 0.679 ± 0.0092
73 | RTSEAGKQHEWK | 0.695 ± 0.0074
74 | RTSKSCVEFTMG | 0.661 ± 0.011
75 | RTTAGINAFPGV | 0.6184 ± 0.0051

Row | Sequence | protein stability index
76 | RTTSFVLSYRRE | 0.66 ± 0.019
77 | RTWDNTRDLDEL | 0.656 ± 0.019
78 | RVCCGVKDSEES | 0.619 ± 0.0062
79 | RVCFSLGAEFSF | 0.665 ± 0.055
80 | RVCVERFDSLTL | 0.733 ± 0.08
81 | RVDAWLEGKTVR | 0.734 ± 0.02
82 | RVGAVCWSIGLL | 0.68 ± 0.03
83 | RVGWCGGGRGGR | 0.658 ± 0.048
84 | RVGWCPCTGDRR | 0.663 ± 0.019
85 | RVHRSVVGYRRC | 0.611 ± 0.025
86 | RVKMEFGRYRIF | 0.52266 ± 0.0005
87 | RVKRTGLGVWGF | 0.649 ± 0.033
88 | RVLCLCATSKSR | 0.672 ± 0.016
89 | RVPGGLPCRPSL | 0.775 ± 0.041
90 | RVQLPSRITQKA | 0.596 ± 0.023
91 | RVQMTTHGCLIS | 0.766 ± 0.15
92 | RVRLSLDSPLGL | 0.684 ± 0.044
93 | RVVHKIFGRRVT | 0.6873 ± 0.0049
94 | RVWNRHWMGASS | 0.776 ± 0.084
95 | RVWSMYCSEANG | 0.666 ± 0.017
96 | RVWYNVGEGPVR | 0.699 ± 0.0085
97 | RWAQVAEGGEGR | 0.732 ± 0.099
98 | RWARGGSRGGGG | 0.703 ± 0.044
99 | RWCEWYDMNTII | 0.636 ± 0.02
100 | RWGVFRSLPSPS | 0.622 ± 0.17

Row | Sequence | protein stability index
101 | RWGVGGSVSFWW | 0.7 ± 0.047
102 | RWGVRGAIHSDL | 0.6841 ± 0.0065
103 | RWSVIHARLLSP | 0.846 ± 0.19
104 | RWSYCLVFSLGL | 0.532 ± 0.015
105 | RWTLMMAIIRQR | 0.559 ± 0.024
106 | RWWGDEAHRDGA | 0.81 ± 0.049
107 | RYANGVLHIGSN | 0.659 ± 0.042
108 | RYCIRDNKSNRN | 0.705 ± 0.051
109 | RYENRGRMKRER | 0.676 ± 0.042
110 | RYKCSQWHNGLT | 0.767 ± 0.048
111 | RYKSVPLHCISN | 0.671 ± 0.022
112 | RYNPPRGIHNDL | 0.651 ± 0.043
113 | RYPSRGQFGPSP | 0.691 ± 0.019
114 | RYRGPIPHEHTC | 0.652 ± 0.085
115 | RYSLMRAVRDRL | 0.775 ± 0.17
116 | SAASLWSGFRYG | 0.68 ± 0.0085
117 | SACAPSPPSPSP | 0.749 ± 0.015
118 | SACRSVPGYVAG | 0.672 ± 0.046
119 | SAFLSFLRLVFL | 0.632 ± 0.011
120 | SAFLSFPFLSPF | 0.705 ± 0.011
121 | SAGIRPFIQVHI | 0.653 ± 0.019
122 | SAGLLFFSFPPL | 0.7873 ± 0.0067
123 | SAGYFYSWNSSD | 0.708 ± 0.028
124 | SAIALGCEGVYP | 0.6853 ± 0.0012
125 | SAMIKRIIGMHY | 0.634 ± 0.048

Row | Sequence | protein stability index
126 | SANSGVRHMHFW | 0.729 ± 0.058
127 | SAPAFPPRPPPT | 0.675 ± 0.025
128 | SAPEPTISKLLP | 0.603 ± 0.027
129 | SAPPLPLSPPPS | 0.739 ± 0.076
130 | SAPRPPPLPPSP | 0.68 ± 0.068
131 | SARECSVRTPHN | 0.711 ± 0.061
132 | SASPLRPPFLLL | 0.635 ± 0.09
133 | SATDARPPMKSP | 0.735 ± 0.069
134 | SCEIDKMYLPLR | 0.701 ± 0.031
135 | SCFTSLLGRRDG | 0.784 ± 0.12
136 | SCGCCGVLFQGV | 0.846 ± 0.2
137 | SCGKGVGRWRLG | 0.6721 ± 0.0029
138 | SCHVRPPVPRPS | 0.663 ± 0.018
139 | SCLALLSLLIDF | 0.57 ± 0.021
140 | SCNLYVGQVKSG | 0.649 ± 0.036
141 | SCPQSSLASVYA | 0.529 ± 0.029
142 | SCPRASSSSLTA | 0.671 ± 0.07
143 | SCRAIIDCMYNT | 0.611 ± 0.067
144 | SCSDPPSPLPLS | 0.686 ± 0.0088
145 | SCSGVHYLGSSL | 0.679 ± 0.023
146 | SCVWVLPLGFLR | 0.575 ± 0.058
